The values below come from patent US10513545B2, “Fusion polypeptide in which anti-inflammatory polypeptide and ferritin monomer fragment are bound and pharmaceutical composition for preventing and treating inflammatory diseases, containing same as active ingredient” (KYUNGPOOK NATIONAL UNIVERSITY INDUSTRY-ACADEMIC COOPERATION …, priority 2015, dated 2019).

The target of one experiment is T1, EPCR (Mus musculus, UniProt Q64695).
T1 construct: from tissue; host or cells: mouse vena cava
T1 sequence (Q64695 18-242): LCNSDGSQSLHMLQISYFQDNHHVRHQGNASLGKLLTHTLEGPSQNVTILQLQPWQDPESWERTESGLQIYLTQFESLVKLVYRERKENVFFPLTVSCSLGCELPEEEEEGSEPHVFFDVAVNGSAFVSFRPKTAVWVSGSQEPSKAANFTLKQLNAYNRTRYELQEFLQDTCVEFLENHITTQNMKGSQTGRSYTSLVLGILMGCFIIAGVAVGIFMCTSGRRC
Nature of the experiment: histological analysis of EPCR binding in vivo (mouse vena cava). The following applies: injected intravenously, FIG. 11. As for the experimental part: Twenty-four hours prior to CLP surgery, fluorescence labeled-PC-Gla, TFG, and TFMG (200 nM/mouse) was intravenously injected into the mice, respectively. After 24 h, mouse vena cava was enucleated and fixed in visikol for 24 h. Subsequently, vena cava was embedded in optimum cutting temperature (OCT) compound (Tissue Tek) at −80° C. Consecutive sections were incubated with anti-EPCR antibody (Santa Cruz, Calif.), anti-rabbit Alexa 488 (green), anti-CD31 antibody, and anti-rabbit Alexa 350 (blue), and observed by confocal microscopy at 63× magnification (TCS-SP5, Leica microsystem, Germany).

The test system of a further experiment is PAR-1. Nature of the experiment: PAR-1 cleavage assay in transfected HUVECs (ALP activity). It is filed as cell-based. As to conditions: FIG. 13. The procedure: HUVECs at 90% confluence in 24-well plates were transiently transfected with pRc/RSV containing ALP-PAR-1-TF cDNA in antibiotic-free Opti-MEM medium using Lipofectamine (Invitrogen) according to the manufacturer's instruction. On the following day, cells were washed and incubated in serum-free medium for 5 h. Cells were then incubated for an additional hour with thrombin, TRAP, TFG, or TFMG. Conditioned medium was collected and centrifuged to remove cellular debris. Supernatant was collected, and ALP (alkaline phosphatase) activity was measured using EnzoLyte™ p-nitrophenyl phosphate alkaline phosphatase assay kit (AnaSpec, San Jose, Calif.) according to the manufacturer's instructions.

In the next experiment the test system is CLP-induced sepsis. In words: survival in animal model of CLP-induced sepsis. Type of experiment: in vivo, mouse. As to conditions: for survival rate: in comparison with PC-Gla and TRAP co-administration group, FIG. 14; for overall effectiveness in sepsis treatment: taken together, in comparison with PC-Gla and TRAP co-administered group. The procedure: Male C57BL/6 mice (6-7 weeks of age, 18-20 g) were purchased from Orient Biotech (Seongnam, Gyeonggi Province, Republic of Korea) and used after 12 days of acclimation. Five mice per cage were housed under the conditions of a controlled temperature (20-25° C.), humidity (40-45%), and 12:12 h day/night cycle, while being fed with a normal rodent pellet and water ad libitum. All animals were treated according to the Guidelines for the Care and Use of Laboratory Animals issued by Kyungpook National University.
To induce inflammation, male mice were anesthetized with 2% isoflurane (JW Pharmaceutical, Republic of Korea) in oxygen delivered via a small rodent gas anesthesia machine (RC2, Vetequip, Pleasanton, Calif.), first in a breathing chamber and then via a facemask. They were allowed to breathe spontaneously during this procedure. The CLP-induced inflammation model was prepared as previously described. In brief, a 2-cm midline incision was made to expose the cecum and adjoining intestine. The cecum was then tightly ligated with a 3.0-silk suture at 5.0 mm from the cecal tip and punctured once using a 22-gauge needle for the induction of high grade inflammation. It was then squeezed gently to extrude a small amount of feces from the perforation site and returned to the peritoneal cavity. The laparotomy site was then sutured with 4.0-silk. In sham control animals, the cecum was exposed but not ligated or punctured and then returned to the abdominal cavity. This protocol was approved by the Animal Care Committee at Kyungpook National University prior to the conduct of the study (IRP No, KNU 2012-13).
All experiments were performed independently at least three times. Values are expressed as means±SEM. The statistical significance of differences between test groups was evaluated using SPSS for Windows, version 16.0 (SPSS, Chicago, Ill.). Statistical relevance was determined by one-way analysis of variance (ANOVA) and Tukey's post-test. P values less than 0.05 were considered to indicate a statistical significance. Survival analysis of CLP-induced sepsis was performed using Kaplan-Meier analysis.

For experiment [1], the system named is LPS-stimulated HUVEC cells. Nature of the experiment: in vitro permeability assay (Evans blue-bound albumin flux). It is filed as cell-based, human. As to conditions: HUVECs, LPS 100 ng/mL 4 h, up to 100 nM, FIG. 19. The procedure: For spectrophotometric quantification of endothelial cell permeabilities in response to increasing concentrations of each molecule, the flux of Evans blue-bound albumin across functional cell monolayers was measured using a modified 2-compartment chamber model, as previously described. HUVECs were plated (5×10^4/well) in 12-mm diameter Transwells with a pore size of 3 μm for 3 days. Confluent monolayers of HUVECs were exposed to LPS (100 ng/mL) for 4 h before being subjected to PC-Gla with TRAP, TFG, or TFMG (up to 100 nM). Transwell inserts were then washed with TBS (pH 7.4), followed by the addition of Evans blue (0.5 mL; 0.67 mg/mL) diluted in a growth medium containing 4% BSA. Fresh growth medium was then added to the lower chamber, and the medium in the upper chamber was replaced with Evans blue/BSA. Ten minutes later, the optical density of the sample in the lower chamber was measured at 650 nm.

Experiment [2] has as its system LPS-stimulated HUVEC cells. Nature of the experiment: cell-cell adhesion assay (leukocytes to HUVEC monolayers). The following applies: HUVECs, LPS 100 ng/mL 4 h, FIG. 21B. It is filed as cell-based, human. The procedure:
Adherence of monocytes to endothelial cells was evaluated by fluorescent labeling of monocytes, as previously described. Briefly, monocytes were labeled with 5 μM Vybrant DiD for 20 min at 37° C. in phenol red-free RPMI containing 5% FBS. After washing, the cells (1.5×10^6 cells/mL, 200 μL/well) were resuspended in adhesion medium (RPMI containing 2% fetal bovine serum and 20 mM HEPES). The cells were then added to confluent monolayers of HUVECs in 96-well plates. Prior to the addition of cells, HUVECs were treated PC-Gla with TRAP, TFG, or TFMG for 6 h, followed by treatment with LPS (100 ng/mL, 4 h). Quantification of cell adhesion was determined as previously described.

B1: TFG: fusion polypeptide: TRAP at N-terminus and PC-Gla at C-terminus of short ferritin monomer fragment, forms nanocage (apparently SEQ ID NO: 14) (protein)
chain: MGGTTFLLRNASGHMSSQIRQNYSTDVEAAVNSLVNLYLQASYTYLSLGFYFDRDDVALEGVSHFFRELAEEKREGYERLLKMQNQRGGRIFLQDIKKPAEDEWGKTPDAMKAAMALEKKLNQALLDLHALGSARTDPHLCDFLETHFLDEEVKLIKKMGDHLTNLHRLGGGSEFVDGGGSGTSANSFLEELRHSSLERECIEEICDFEEAKEIFQNVDDTLAFWSKHVLEHHHHHH
modifications: Fusion polypeptide (1)
In the case of B1, in the experiment with EPCR, the “in vivo binding by immunohistochemistry” value was “colocalized with EPCR and CD31”. In addition, in the experiment with PAR-1, the “PAR-1 cleavage activity (ability to activate PAR-1)” value was “strong similarities”. Also, in the experiment on CLP-induced sepsis, the survival rate result is listed as “significantly improved” and the “overall effectiveness in sepsis treatment” value is recorded as “significantly effective”. Besides, the “in vitro endothelial cell permeability” value in experiment [1] is “alleviated”. In experiment [2], the adhesion of leukocytes result is “inhibited”.

B2: TFMG: as TFG with an MMP-2 cleavable linker (GPLGLAG) between ferritin fragment C-terminus and PC-Gla (apparently SEQ ID NO: 15) (protein)
chain: MGGTTFLLRNASGHMSSQIRQNYSTDVEAAVNSLVNLYLQASYTYLSLGFYFDRDDVALEGVSHFFRELAEEKREGYERLLKMQNQRGGRIFLQDIKKPAEDEWGKTPDAMKAAMALEKKLNQALLDLHALGSARTDPHLCDFLETHFLDEEVKLIKKMGDHLTNLHRLGGGSEFVDGGGSGTSGPLGLAGANSFLEELRHSSLERECIEEICDFEEAKEIFQNVDDTLAFWSKHVLEHHHHHH
modifications: Fusion polypeptide (2)
For the molecule B2, the “in vivo binding by immunohistochemistry” value in the experiment with EPCR was “colocalized with EPCR and CD31”. In addition, the “PAR-1 cleavage activity (ability to activate PAR-1)” value in the experiment with PAR-1 was “strong similarities”. Also, in the experiment with CLP-induced sepsis, the survival rate entry is given as “significantly improved” and the “overall effectiveness in sepsis treatment” value was “more effective antiseptic than TFG”. In addition, the “in vitro endothelial cell permeability” value in experiment [1] is “alleviated”. Moreover, in experiment [2], the adhesion of leukocytes entry was “inhibited”.
